Reference: patent US20170240614A1

Tests used:
[1] = molecular target: human insulin receptor isoform A (hIR-A) (human) (UniProt P06213); test: competitive radioligand binding (SPA), [125I]-A14-insulin, hIR-A membranes
[2] = molecular target: human insulin receptor isoform B (hIR-B) containing a C9 epitope tag at the C-terminus (human) (UniProt P06213); test: competitive radioligand binding (SPA), [125I]-A14-insulin, hIR-B membranes
[3] = molecular target: human insulin receptor isoform B (hIR-B) containing a C9 epitope tag at the C-terminus (human) (UniProt P06213); test: cell-based or functional assay

IGF-1 (from UniProt P05019 49-118) (ligand)
Ki [1]: 4.1 nM | Ki [2]: 50.8 nM | Receptor Phosphorylation EC50 [3]: 253 nM
